According to patent US20140323404A1 (GUANGDONG MEDICAL COLLEGE, published 2014):

B1: NAPTin-8 (peptide)
chain: NPSCGENERHDECSRKECDPKCKYDGTEEKDDEKPVVCLTRVCYGDCICRDGFLRNKNGACVKAEDCELDNMEF
B2: NAPTin-5 (peptide)
chain: NPSCGENERHDECSRKECDPKCKYDGTEEKDDEKPVVCLTRVCYGDCICRDGFLRNKNGACVKAEDCEL
B3: NAPTin-6 (peptide)
chain: NPSCGENERHDECSRKECDPKCKYDGTEEKDDEKPVVCLTRVCYGDCICRDGFLRNKNGACVKAEDCE
B4: NAPTin-7 (peptide)
chain: NPSCGENERHDECSRKECDPKCKYDGTEEKDDEKPVVCLTRVCYGDCICRDGFLRNKNGACVKAEDC
B5: NAPTin-4 (peptide)
chain: NPSCGENERHDECSRKECDPKCKYDGTEEKDDEKPVVCLTRVCYGDCICRDGFLRNKNGACVKAEDCELDNME
B6: NAPTin-3 (peptide)
chain: NPSCGENERHDECSRKECDPKCKYDGTEEKDDEKPVVCLTRVCYGDCICRDGFLRNKNGACVKAEDCELDNM
B7: NAPTin-2 (peptide)
chain: NPSCGENERHDECSRKECDPKCKYDGTEEKDDEKPVVCLTRVCYGDCICRDGFLRNKNGACVKAEDCELDN
B8: NAPTin-9 (peptide)
chain: NPSCGENERHDECSRKECDPKCKYDGTEEKDDEKPVVCLTRVCYGDCICRDGFLRNKNGACVKAEDCELDNMEFI

Each binder was assayed against Human coagulation factor XIa (human, UniProt P03951 19-625) (assay: cell-based or functional assay).
With B1 the “inhibition of fXIa activity, chromogenic assay, polypeptide at 100 nM” value (“inhibition of fXIa activity” below) was > 90%. With B2 the “inhibition of fXIa activity” value was > 90%. For B3, the “inhibition of fXIa activity” value was > 90%. For B4, the “inhibition of fXIa activity” value was > 90%. B5 was tested, and the “inhibition of fXIa activity” value was > 90%. For B6, the “inhibition of fXIa activity” value was > 90%. With B7 the “inhibition of fXIa activity” value was > 90%. With B8 the “inhibition of fXIa activity” value was > 90%.
